Molecular target: T1, NRSF/REST DBD (refolded by 2DR) (UniProt Q13127 159-412)
T1 sequence: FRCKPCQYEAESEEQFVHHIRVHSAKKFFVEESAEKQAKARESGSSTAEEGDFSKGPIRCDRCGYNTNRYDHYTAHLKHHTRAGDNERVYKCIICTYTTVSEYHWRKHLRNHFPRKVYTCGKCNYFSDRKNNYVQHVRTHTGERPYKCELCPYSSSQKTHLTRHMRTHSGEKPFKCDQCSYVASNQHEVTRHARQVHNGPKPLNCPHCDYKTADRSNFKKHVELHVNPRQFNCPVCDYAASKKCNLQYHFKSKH
Test: EMSA; 0.1 mM ZnCl2; DBD:DNA 0:1 to 3:1, 75 pmol DNA in 20 ul; 10 mM Tris pH 7.0, 0.1 mM ZnCl2, 20 ul, 30 min at room temperature; 5% native PAGE, EtBr stain
Conditions: protein: recombinant; label: none (EtBr stain); blunt

B1: NRSE/RE1 dsDNA (dsDNA)
DNA 1: TTCAGCACCACGGACAGCGCC
DNA 2: GGCGCTGTCCGTGGTGCTGAA
Question: Does B1 bind?
Answer: binds

Source: publication PMC3146519, “Highly Efficient Production of Soluble Proteins from Insoluble Inclusion Bodies by a Two-Step-Denaturing and Refolding Method”
